Reference: US20080293626A1, “Pigment epithelium-derived factor as a therapeutic agent for vascular leakage” (The Johns Hopkins University, priority 2003, published 2008)
Entries after “also recorded” stand apart in the source; their conditions may differ.

Key:
[1] = tested on: VEGF164-stimulated bovine retinal capillary endothelial cell migration; settings: read-out: IC50, inhibition of VEGF-stimulated endothelial cell migration; BRCEC, VEGF164-stimulated, 8 hours at 37° C.
Description: BRCEC migration assay. Bovine retinal capillary endothelial cells (BRCEC) were isolated and cultured as described 45. […] Cells, between the fifth and ninth passage, were starved overnight in MEM with D-Val and 2% fetal bovine serum. Polycarbonate filters (10 μm pore-size, PVPF; Osmonics Inc., Minnetonka, Minn.) were coated with 100 μg/ml collagen. Quadruplicates with test samples in MEM D-Val (28 μl), and 10^4 cells in MEM D-Val (50 μl) were placed in the lower and upper wells, respectively, of the microchemotaxis chamber (NeuroProbe, Gaithersburg, Md.). After incubating 8 hours at 37° C., the non-migrated cells on the upper surface of the filter were removed, and the filters were stained with Harris' hematoxylin. For each of the test samples, one 400× field per quadrant of each of the quadruplicates was counted. From the total cell number in the 4 fields, the mean and standard error of the quadruplicate wells were calculated. Baseline migration equaled the number of migrated cells with MEM D-Val without any added proteins or peptides. The difference between baseline and the number of migrated cells with VEGF added equals maximal total migration.

[2] = tested on: VEGF-induced retinal vascular permeability; test: Evans blue assay after intravitreal co-injection with VEGF164; assay type: in vivo, mouse (C57BL/6J); settings: mouse eye, co-injected intravitreally with VEGF164 at 20-fold molar excess; for inhibition of VEGF-induced retinal vascular permeability (Evans blue-albumin): 24 h, VEGF-induced increase = 100%, mean ±SE
Description: (§1) Intravitreal injection to assess bioactivity on vascular permeability. C57BL/6J mice, 6-8 weeks of age, were cared for in accordance with the Association for Research in Vision and Opthalmology Statement for the Use of Animals in Ophthalmic and Vision Research. For anesthesia, each received intramuscularly 20 mg/kg ketamine, 20 mg/kg xylazine and 800 mg/kg urethane in 0.3-0.4 ml of phosphate buffered saline (PBS, 1.06 mM KH2PO4, 0.15 M NaCl and 3.00 mM Na2HPO4, pH 7.4). Under 10× magnification, 1 μl of murine VEGF164 (12.6 ng/μl in PBS; R&D Systems, Minneapolis, Minn.) was delivered through a 20° beveled glass pipette, with a tip diameter of 13-20 μm. The contralateral eye received an equal volume of PBS alone or PBS containing 12.6 ng VEGF164, and a 20-fold molar excess of PEDF (232 ng), ACT (278 ng), HSP47 (278 ng), PEDFpep (28.1 ng), ACTpep (29.7 ng), or CHIMERApep (28.2 ng).
Evans Blue assay. We used a modification of the method described by Qaum et al.^44 Briefly, each mouse received intravitreal injections of proteins or peptides, and intrajugular injection of Evans blue^44. After 2 hours, 200 μl blood was taken and assayed for Evans blue. The retina was extruded and dissected free from any vitreous or adherent retinal pigment epithelium.
To assess the Evans blue-albumin concentration, the optical density of the retinal extract and plasma samples were measured at 620 nm and 740 nm. The retinal vasopermeability was calculated as the quantity of retinal Evans blue normalized to retinal dry weight, plasma Evans blue concentration, and circulation time by using the formula as described^32,44. Since all animals in this report had 1 eye injected with VEGF alone, the retinal permeability in the VEGF injected eyes was normalized to the VEGF injected eye in the set of animals where 1 eye received PBS. The VEGF-induced increase in permeability was taken to be 100%.

[3] = tested on: VEGF-induced retinal vascular permeability; test: Fluorescein angiography after intravitreal co-injection with VEGF164; assay type: in vivo, mouse (C57BL/6J); settings: mouse eye, co-injected intravitreally with 12.6 ng VEGF164 at 20-fold molar excess; 20 h after injection; qualitative
Description: as §1
Fluorescein angiograghy. Twenty hours after intravitreal injections, each pupil was dilated with one drop of 1% atropine sulfate. After intraperitoneal injection of 0.1 ml of 25% fluorescein, successive retina photographs were taken with a Kowa Genesis camera. The first photograph was taken within 20 seconds of the intraperitoneal fluorescein injection. Time elapsed between the alternating right and left eye retinal photographs averages 10 seconds. Fluorescein leakage manifests as indistinct vascular borders progressing to diffusely hazy fluorescence.

B1: PEDF: Recombinant human pigment epithelium-derived factor, 418-amino acid 50-kDa glycoprotein, produced in 293 cells (SEQ ID NO: 1) (protein, listed as Homo sapiens)
chain: MQALVLLLCIGALLGHSSCQNPASPPEEGSPDPDSTGALVEEEDPFFKVPVNKLAAAVSNFGYDLYRVRSSMSPTTNVLLSPLSVATALSALSLGAEQRTESIIHRALYYDLISSPDIHGTYKELLDTVTAPQKNLKSASRIVFEKKLRIKSSFVAPLEKSYGTRPRVLTGNPRLDLQEINNWVQAQMKGKLARSTKEIPDELSLLLLGVAHFKGQWVTKFDSRKTSLEDFYLDEERTVRVPMMSDPKAVLRYGLDSDLSCKIAQLPLTGSMSLIFFLPLKVTQNLTLIEESLTSEFIHDIDRELKTVQAVLTVPKLKLSYEGEVTKSLQEMKLQSLFDSPDFSKITGKPIKLTQVEHRAGFEWNEDGAGTTPSPGLQPAHLTFPLDYHLNQPFIFVLRDTDTGALLFIGKILDPRGP
modifications: glycosylated
IC50 [1]: 500 pM | inhibition of VEGF-induced retinal vascular permeability (Evans blue-albumin) [2]: 95.6±21.2% | effect on VEGF-induced vascular permeability by Evans blue assay ([2]; qualitative statement): obliterated | effect on VEGF-induced fluorescein leakage / vascular permeability (fluorescein angiography) [3]: not observed; also recorded: inhibits

B2: HSP47: heat shock protein 47, collagen-specific chaperone protein from the serpin family, control protein (protein, UniProt P50454 19-418, looked up)
Serpin H1: AEVKKPAAAAAPGTAEKLSPKAATLAERSAGLAFSLYQAMAKDQAVENILVSPVVVASSLGLVSLGGKATTASQAKAVLSAEQLRDEEVHAGLGELLRSLSNSTARNVTWKLGSRLYGPSSVSFADDFVRSSKQHYNCEHSKINFRDKRSALQSINEWAAQTTDGKLPEVTKDVERTDGALLVNAMFFKPHWDEKFHHKMVDNRGFMVTRSYTVGVMMMHRTGLYNYYDDEKEKLQIVEMPLAHKLSSLIILMPHHVEPLERLEKLLTKEQLKIWMGKMQKKAVAISLPKGVVEVTHDLQKHLAGLGLTEAIDKNKADLSRMSGKKDLYLASVFHATAFELDTDGNPFDQDIYGREELRSPKLFYADHPFIFLVRDTQSGSLLFIGRLVRPKGDKMRDEL
inhibition of VEGF-induced retinal vascular permeability (Evans blue-albumin) [2]: 19.4±22.3% | effect on VEGF-induced fluorescein leakage / vascular permeability (fluorescein angiography) [3]: no effect

B3: ACT: α1-antichymotrypsin, a classical serpin used as control protein (protein, UniProt P01011 24-423, looked up)
Alpha-1-antichymotrypsin: HPNSPLDEENLTQENQDRGTHVDLGLASANVDFAFSLYKQLVLKAPDKNVIFSPLSISTALAFLSLGAHNTTLTEILKGLKFNLTETSEAEIHQSFQHLLRTLNQSSDELQLSMGNAMFVKEQLSLLDRFTEDAKRLYGSEAFATDFQDSAAAKKLINDYVKNGTRGKITDLIKDLDSQTMMVLVNYIFFKAKWEMPFDPQDTHQSRFYLSKKKWVMVPMMSLHHLTIPYFRDEELSCTVVELKYTGNASALFILPDQDKMEEVEAMLLPETLKRWRDSLEFREIGELYLPKFSISRDYNLNDILLQLGIEEAFTSKADLSGITGARNLAVSQVVHKAVLDVFEEGTEASAATAVKITLLSALVETRTIVRFNRPFLMIIVPTDTQNIFFMSKVTNPKQA
inhibition of VEGF-induced retinal vascular permeability (Evans blue-albumin) [2]: 3.4±18.2% | effect on VEGF-induced fluorescein leakage / vascular permeability (fluorescein angiography) [3]: no effect
